The subject of assay [1] is IPC-298 melanoma cells. The assay is described as follows: Soft agar assay IPC-298 with secondary immunotoxin Mab-ZAP. In kind it is cell-based, human. The note with it: 2.5 ng antibody with 100 pg Mab-ZAP, 10 days. How it is done: For comparison Mab-ZAP was pre-incubated with 2.5 ng control IgG. After 30 min pre-incubation, 2000 IPC-298 cells in OptiMEM with 20 mM KCl were added and further incubated at 37° C. for 30 min. IPC-298 cells, pre-incubated with immunotoxin-labelled anti-EAG1 antibody, were resuspended in 50 μl/well 0.25% Difco noble agar containing OptiMEM with 0.5% FCS and plated on 50 μl/well 0.5% agarose underlayer containing OptiMEM with 0.5% FCS in quadruplicates. Additionally, 50 μl/well 0.25% feeding agar containing OptiMEM with 0.5% FCS was plated. Colonies were allowed to form for 10 days and were stained with 50 μl MTT (1 mg/ml in PBS) for 1.5 hours. Wells were scanned using an Epson scanner and colonies were counted using the Scion Image software.

Assay [2] deals with T1, endogenous Eag1 antigen in MCF7 breast cancer and IPC-298 melanoma cells (Homo sapiens, UniProt O95259).
T1 construct: endogenous in cells; host or cells: MCF7 breast cancer cells, IPC-298 melanoma cells
T1 sequence (O95259 1-989): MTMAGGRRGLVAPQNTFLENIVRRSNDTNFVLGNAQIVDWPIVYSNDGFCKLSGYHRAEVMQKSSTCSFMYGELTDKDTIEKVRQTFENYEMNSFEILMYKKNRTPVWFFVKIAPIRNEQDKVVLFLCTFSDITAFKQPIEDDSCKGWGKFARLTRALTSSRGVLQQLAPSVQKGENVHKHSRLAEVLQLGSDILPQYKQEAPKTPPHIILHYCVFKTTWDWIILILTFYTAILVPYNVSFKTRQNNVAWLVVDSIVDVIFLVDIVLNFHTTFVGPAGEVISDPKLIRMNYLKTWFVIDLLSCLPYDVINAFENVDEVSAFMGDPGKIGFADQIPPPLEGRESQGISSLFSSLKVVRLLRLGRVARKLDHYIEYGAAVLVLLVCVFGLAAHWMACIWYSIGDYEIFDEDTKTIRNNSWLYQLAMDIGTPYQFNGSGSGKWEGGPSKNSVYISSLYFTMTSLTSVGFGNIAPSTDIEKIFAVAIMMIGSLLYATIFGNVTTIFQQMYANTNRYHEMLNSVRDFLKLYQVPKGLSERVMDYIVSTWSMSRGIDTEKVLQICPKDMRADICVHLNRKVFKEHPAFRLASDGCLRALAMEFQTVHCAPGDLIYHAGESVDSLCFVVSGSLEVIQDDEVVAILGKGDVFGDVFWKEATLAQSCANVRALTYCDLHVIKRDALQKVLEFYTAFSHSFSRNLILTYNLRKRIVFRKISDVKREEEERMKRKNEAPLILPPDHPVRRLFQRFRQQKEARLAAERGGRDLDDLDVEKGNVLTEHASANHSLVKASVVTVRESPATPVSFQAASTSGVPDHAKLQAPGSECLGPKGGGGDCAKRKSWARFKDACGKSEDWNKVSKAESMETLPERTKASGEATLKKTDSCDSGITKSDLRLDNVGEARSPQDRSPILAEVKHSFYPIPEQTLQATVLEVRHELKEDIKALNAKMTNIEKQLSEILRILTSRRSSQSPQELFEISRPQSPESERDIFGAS
The experiment in a line: Immunofluorescence detection of Eag1 antigen in human tumor cells. In kind it is cell-based. The note with it: 2 μg/ml antibody. The method, then:
For detection of Eag1 antigen in human tumor cells an Immunofluorescence staining protocol was established. Glass-Chamber slides (Falcon) were pre-coated with 300 μl medium containing 10% FCS at 37° C. for 30 min. 40 000 MCF7 breast cancer cells/well and 40 000 IPC-298 melanoma cells/well were seeded on pre-coated glass chamber slides and cultured at 37° C. in 5% CO2 for 24 h. After removing the chambers, slides were washed with PBS and cells were fixed with 4% Paraformaldehyd (in PBS adjusted to pH 7.5 with 1 M NaOH) at 25° C. for 10 min. Slides were air dried and re-hydrated with PBS for 3 min (3×). Cells were permeabilized with 0.5% Triton-X 100 in PBS for 10 min at 25° C., slides were washed for 3 min in PBS (3×) and each well was blocked with 100 μl blocking buffer (5% FCS, 2.5% BSA in PBS) at 25° C. for 1 hours. 2 μg/ml anti-EAG1 antibody ImAb 4 diluted in 40 μl blocking buffer/well was incubated for 1 h at 25° C., washed 3× with PBS and 50 μl Alexa 546 goat anti-mouse IgG (Molecular Probes; diluted 1:200 in dilution buffer) was incubated as detection antibody for 1 h at 25° C. Slides were washed with PBS (3×), 50 μl DAPI (Roche; diluted 1:1000 in PBS) was added to each well and incubated at 25° C. for 5 min. […]
Staining of the anti-EAG1 antigen with ImAb 4 was analysed using a Fluorescence microscope at 573 nm.

For assay [3], the system named is Eag2. The experiment in a line: BIAcore cross-reactivity with Eag family member Eag2. In kind it is binding. The note with it: 10 μg/ml antibody, flow rate 20 μl/min; chip coated with Eag2 equivalent regions. How it is done:
(§1) In order to analyse cross-reactivity of anti-Eag1 antibodies of the invention with the most homologous Eag family member Eag2 a BIAcore™ binding analysis was performed. BIAcore chips were coated with Eag1 C-terminus (amino acids 694 to 962), the H5 region (amino acids 374 to 452) or Eag2 (the equivalent regions fused in a single construct). The interaction with anti-Eag1 antibodies ImAb1 and ImAb3 were analysed using 10 μg/ml antibody at a flow rate of 20 μl/min.

Assay [4] deals with Eag1. The experiment in a line: BIAcore binding analysis on Eag1 C-terminus and H5 region. The note with it: 10 μg/ml antibody, flow rate 20 μl/min; chips coated with Eag1 C-terminus (aa 694 to 962) or H5 region (aa 374 to 452). The method, then: as §1

B1: ImAb4: mouse monoclonal anti-Eag1 antibody, IgG2b kappa; light chain SEQ ID NO: 2, heavy chain SEQ ID NO: 4 (antibody, listed as Mus musculus)
heavy: MRVLILLWLFTAFPGILSDVQLQESGPGLVKPSQSLSLTCTVTGYSITSDYAWNWIRQFPGNKLEWMGYISYSGSTIYNPSLKSRISITRDTSKNQFFLQLNSVTTEDTATYYCARFGNYGNTLNYWGQGTSVTVSSAKTTPPSVYPLAPGCGDTTGSSVTLGCLVKGYFPESVTVTWNSGSLSSSVHTFPALLQSGLYTMSSSVTVPSSTWPSQTVTCSVAHPASSTTVDKKLEPSGPISTINPCPPCKECHKCPAPNLEGGPSVFIFPPNIKDVLMISLTPKVTCVVVDVSEDDPDVQISWFVNNVEVHTAQTQTHREDYNSTIRVVSTLPIQHQDWMSGKEFKCKVNNKDLPSPIERTISKIKGLVRAPQVYILPPPAEQLSRKDVSLTCLVVGFNPGDISVEWTSNGHTEENYKDTAPVLDSDGSYFIYSKLNMKTSKWEKTDSFSCNVRHEGLKNYYLKKTISRSPGK
light: MKLPVRLLVLMFWIPASSSDVVMTQTPLSLPVSLGDQASISCRSSQSLVHSNGNTYLHWYLQKPGQSPKLLIYKVSNRFSGVPDRFSGSGSGTDFTLKISRVEAEDLGVYFCSQSTHVPPTFGGGTKLEIKRADAAPTVSIFPPSSEQLTSGGASVVCFLNNFYPKDINVKWKIDGSERQNGVLNSWTDQDSKDSTYSMSSTLTLTKDEYERHNSYTCEATHKTSTSPIVKSFNRNEC
As for B1, the “inhibition of anchorage independent cell growth” value in assay [1] is recorded as “inhibits anchorage independent tumor cell growth”. For the same molecule, in assay [2], the “preferential binding by cell stage” value is given as “preferentially binds to dividing human cancer cells”. The “binding to endogenous Eag1 antigen” value in assay [2] (fixed permeabilized cells) is reported as “binds to endogenous Eag1 antigen in human cancer cells”.

B2: ImAb1: mouse monoclonal anti-Eag1 antibody; VL SEQ ID NO: 43, VH SEQ ID NO: 44; binds C-terminus of Eag1 (antibody, listed as Mus musculus)
heavy: MNFGFSLIFLVLVLKGVQCEVKLVESGGGLVKPGGSLKLSCAASGFTFSNYAMSWVRQTPEKRLEWVASISSDGDTYFPDNVKGRFTISRENAGNILFLQMSSLRSEDTAMYYCARGFMITFWGQGTLVTVSAAKTTPPSVYPLAPGCGDTTGSSVTLGCLVKGYFPESVTVTWNSGSLSSSVHTFPALLQSGLYTMSSSVTVPSSTWPSQTVTCSVAHPASSTTVD
light: MDMRAPAQFFGILLLWFPGIRCDIKMTQSPSSMYASLGERVTITCKASQDIKSYLSWYQQKPWKSPKILIYYATSLADGVPSRISGSGSGQDYSLTISSLESDDTATYYCLQHGESPYTFGGGTKLEIKRADAAPTVSIFPPSSEQLTSGGASVVCFLNNFYPKDINVKWKIDGSERQNGVLNSWTDQDSKDSTYSMSSTLTLTKDEYERHNSYTCEATHKTSTSPIVKSFNRNEC
Consider B2, for which, in assay [3], the “cross-reactivity with Eag2” value was “do not cross-react with Eag2”. The “binding region on Eag1 antigen” value in assay [4] is “specifically binds to the C-terminus of the Eag1 antigen”.

Values taken from patent US7910100B2, “Antibodies directed to the mammalian EAG1 ion channel protein” (Max-Planck-Gesellschaft zur Forderung der Wissen, priority 2004, dated 2011).
